Experiment [1] has as its target purified αVβ3 integrin (UniProt P06756). The experiment in a line: [125I]-T4 radioligand displacement on purified αVβ3, native gel band intensity; LM609 at 2 µg/ml.
Experiment [2] has the same target. The experiment in a line: [125I]-T4 radioligand displacement on purified αVβ3, native gel band intensity; LM609 at 4 µg/ml.
Experiment [3] shares this target. The experiment in a line: [125I]-T4 radioligand displacement on purified αVβ3, native gel band intensity; LM609 at 8 µg/ml.
The target is the same in experiment [4]. Kind of experiment: [125I]-T4 radioligand displacement on 2 µg purified αVβ3, native gel band intensity; LM609 at 1 µg/ml.
Experiment [5] shares this target. Kind of experiment: [125I]-T4 radioligand displacement on purified αVβ3, native gel band intensity; SC7312 at 1 µg/ml.
Experiment [6] shares this target. The experiment in a line: [125I]-T4 radioligand displacement on purified αVβ3, native gel band intensity; SC7312 at 2 µg/ml.
Experiment [7] has the same target. The experiment in a line: [125I]-T4 radioligand displacement on purified αVβ3, native gel band intensity; SC7312 at 4 µg/ml.
The target is the same in experiment [8]. The experiment in a line: [125I]-T4 radioligand displacement on purified αVβ3, native gel band intensity; SC7312 at 8 µg/ml.
The target is the same in experiment [9]. The experiment in a line: [125I]-T4 radioligand displacement on purified αVβ3, native gel band intensity; SC7312 at 8 µg/ml (figure legend; Example 17 prints 59%).

UniProt P06756, sequence (P06756 31-1048, form in doubt, chain 1 of 2): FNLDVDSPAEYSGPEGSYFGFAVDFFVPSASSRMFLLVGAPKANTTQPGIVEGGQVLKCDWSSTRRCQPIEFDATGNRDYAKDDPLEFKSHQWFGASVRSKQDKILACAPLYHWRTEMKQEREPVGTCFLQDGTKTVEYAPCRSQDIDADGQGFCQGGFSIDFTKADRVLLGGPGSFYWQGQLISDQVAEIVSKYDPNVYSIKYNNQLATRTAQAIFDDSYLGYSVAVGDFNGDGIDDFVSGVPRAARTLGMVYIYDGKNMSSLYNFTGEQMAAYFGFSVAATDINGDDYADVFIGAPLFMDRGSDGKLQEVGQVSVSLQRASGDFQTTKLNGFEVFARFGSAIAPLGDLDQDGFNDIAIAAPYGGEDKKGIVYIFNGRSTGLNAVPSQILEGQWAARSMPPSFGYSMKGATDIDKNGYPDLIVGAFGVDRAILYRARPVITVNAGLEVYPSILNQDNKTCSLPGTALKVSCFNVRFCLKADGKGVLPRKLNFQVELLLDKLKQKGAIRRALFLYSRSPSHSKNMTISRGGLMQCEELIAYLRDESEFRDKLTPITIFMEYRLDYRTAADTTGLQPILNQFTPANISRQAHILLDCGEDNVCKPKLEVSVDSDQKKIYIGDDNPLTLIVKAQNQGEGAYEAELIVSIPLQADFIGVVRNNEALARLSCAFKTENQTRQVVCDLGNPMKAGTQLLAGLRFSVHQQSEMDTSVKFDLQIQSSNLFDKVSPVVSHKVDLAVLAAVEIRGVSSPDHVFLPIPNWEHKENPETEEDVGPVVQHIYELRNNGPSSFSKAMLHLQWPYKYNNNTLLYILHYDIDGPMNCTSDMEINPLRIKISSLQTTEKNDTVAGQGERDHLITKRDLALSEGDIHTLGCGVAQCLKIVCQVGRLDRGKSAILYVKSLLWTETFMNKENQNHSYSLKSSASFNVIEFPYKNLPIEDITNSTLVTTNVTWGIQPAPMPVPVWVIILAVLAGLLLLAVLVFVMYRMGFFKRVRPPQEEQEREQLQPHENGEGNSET
UniProt P06756, sequence (P05106 27-788, form in doubt, chain 2 of 2, further chain): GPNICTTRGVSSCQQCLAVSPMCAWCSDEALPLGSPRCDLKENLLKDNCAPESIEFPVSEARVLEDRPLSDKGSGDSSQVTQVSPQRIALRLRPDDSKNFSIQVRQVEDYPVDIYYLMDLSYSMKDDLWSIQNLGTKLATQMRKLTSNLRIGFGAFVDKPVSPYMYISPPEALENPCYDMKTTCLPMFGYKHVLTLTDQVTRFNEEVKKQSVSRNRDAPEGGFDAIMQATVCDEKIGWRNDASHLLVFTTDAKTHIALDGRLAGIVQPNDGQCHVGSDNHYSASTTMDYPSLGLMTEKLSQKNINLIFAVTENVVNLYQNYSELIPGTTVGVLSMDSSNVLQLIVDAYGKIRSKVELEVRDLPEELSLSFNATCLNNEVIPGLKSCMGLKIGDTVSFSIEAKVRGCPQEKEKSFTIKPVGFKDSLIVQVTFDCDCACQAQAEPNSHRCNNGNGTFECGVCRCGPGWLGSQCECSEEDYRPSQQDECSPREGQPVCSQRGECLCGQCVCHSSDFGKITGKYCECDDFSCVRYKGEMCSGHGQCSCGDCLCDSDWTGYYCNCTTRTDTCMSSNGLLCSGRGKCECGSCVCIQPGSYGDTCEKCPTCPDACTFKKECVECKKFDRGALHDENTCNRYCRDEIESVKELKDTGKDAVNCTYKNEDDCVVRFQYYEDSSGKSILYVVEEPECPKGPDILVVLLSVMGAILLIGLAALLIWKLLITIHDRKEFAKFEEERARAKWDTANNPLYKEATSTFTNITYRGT

With monoclonal antibody LM609 to αVβ3, the percent reduction of [125I]T4-αVβ3 band intensity with purified αVβ3 integrin [1] is 64%; with purified αVβ3 integrin [2], 63%; with purified αVβ3 integrin [3] it was 81%. The percent reduction of [125I]T4-αVβ3 complex formation with purified αVβ3 integrin [4] came to 52%.

On to monoclonal antibody SC7312 to αVβ3, for which the percent reduction of T4 binding to αVβ3 in the experiment with purified αVβ3 integrin [5] was 20%; with purified αVβ3 integrin [6], 46%; in the experiment with purified αVβ3 integrin [7], 47%; in the experiment with purified αVβ3 integrin [8] it was 59%; with purified αVβ3 integrin [9], 58%.

Source of the values: patent US9579300.
